The target of the test is complete MN/CA IX protein (MN/CA IX+), from Vero cells infected with vaccinia virus carrying the complete coding region of MN/CA IX (human) (UniProt Q16790). As to the kind of experiment: cell-based or functional assay.

The substance “monoclonal antibody M75 (MAb M75), secreted by hybridoma VU-M75, ATCC HB 11128” gave a cell attachment to purified MN/CA IX+ (fold dilution of ascites fluid) of 1000.

(Values after patent publication US7910549.)
